In patent US20190367615A1 (BEIJING HANMI PHARM, published 2019):

Assays:
[1] = target: T1, Recombinant human PD-1 (Sino Biological Inc., Catalog Number 10377-H08H) (human, UniProt Q15116 25-167); test: ELISA, coated recombinant human PD-1 (1 ug/mL), detection with anti-mouse IgG-HRP, OD450nm
T1 construct: Bought protein; also called antigen PD-1
Procedure: (§1) The plate was washed five times with PBST. […] The plate was washed five times with PBST. […] The plate was washed five times with PBST. 100 μL/well of colorimetric substrate TMB was added and incubated at room temperature for 10 minutes. Color development was terminated by adding 100 μL/well of 1 M H₂SO₄. The absorbance at 450 nm was read on a microplate reader.

[2] = target: T2, Recombinant human PD-1-Fc (human, UniProt Q15116 25-167, limits assumed); test: competition ELISA, coated human PD-1-Fc, blocked ligand biotin-labeled PD-L1 (final 10 nM), streptavidin-HRP, OD450nm
T2 construct: also called recombinant human PD-1-Fc protein; not shown: Fc part
T2 sequence (Q15116 25-167 limits assumed): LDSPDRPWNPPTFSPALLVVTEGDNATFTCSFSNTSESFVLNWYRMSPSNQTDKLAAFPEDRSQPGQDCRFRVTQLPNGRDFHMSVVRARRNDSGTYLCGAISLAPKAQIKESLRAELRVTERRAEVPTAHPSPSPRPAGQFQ
Procedure: as §1

T1 sequence (Q15116 25-167 limits assumed): as above

B1: murine anti-human PD-1 monoclonal antibody secreted by Clone No. 2 (antibody, V domains shown)
VH: EVQLQESGGGLVKPGGSLKLSCAASGFTFSSYGMSWVRQTPEKRLEWVASISGGGRYTYYPDSMKGRFTISRDNAKNNLHLQMSSLRSEDTALYYCVYEYFYTMDYWGQGTSVTVSS
VL: DIVLTQSPATLSVTPGDSVSLSCRANQSISNNLHWYQQRSHESPRLLIRFASQSISGIPSRFSGSGSGTDFTLSINSVETEDFGMYFCQQSDNWPLTFGAGTKLEIK
notes: Hybridoma culture supernatant; Clone No. 2 is the only clone named, so the tie is implicit
EC50 [1]: 0.052 nM | IC50 [2]: 0.838 nM
